# Laboratory results from the RNAGym collection of RNA variant scans (doi:10.1021/acssynbio.7b00057).
# B1: Pistol ribozyme (parent)
# chain: GGGUCGUUGUUCCAUAAUCGCGUGGAUAUGGCACGCAAGUUUCUACCGGGCACCGUAAAUGUCCGACUGGAGCCGUUCGGGCGGCUAUAAACAGACCUCAGGCCCGAAGCGUGGCGGCACCUGCCGCCGGUGGUAAAAAAGAUCGGAAGAGCACACGUCU
# Variants of: B1
# Assay: aptazyme ON/OFF ratio, guanine; higher = stronger switching; co-transcriptional cleavage with and without guanine
row,Variant,aptazyme ON/OFF ratio
1,GGGUCGGUCGGGCAUAAUCGCGUGGAUAUGGCACGCAAGUUUCUACCGGGCACCGUAAAUGUCCGACUGGAGCCGUUCGGGCGGCUAUAAACAGACCUCAGGCCCGAAGCGUGGCGGCACCUGCCGCCGGUGGUAAAAAAGAUCGGAAGAGCACACGUCU [U7G G9C U10G U11G C12G],1.07
2,GGGUCGGUCGGUCAUAAUCGCGUGGAUAUGGCACGCAAGUUUCUACCGGGCACCGUAAAUGUCCGACUGGAGCCGUUCGGGCGGCUAUAAACAGACCUCAGGCCCGAAGCGUGGCGGCACCUGCCGCCGGUGGUAAAAAAGAUCGGAAGAGCACACGUCU [U7G G9C U10G U11G C12U],1.32
3,GGGUCGGUCUCGAAUAAUCGCGUGGAUAUGGCACGCAAGUUUCUACCGGGCACCGUAAAUGUCCGACUGGAGCCGUUCGGGCGGCUAUAAACAGACCUCAGGCCCGAAGCGUGGCGGCACCUGCCGCCGGUGGUAAAAAAGAUCGGAAGAGCACACGUCU [U7G G9C U11C C12G C13A],1.35
4,GGGUCGGUCUAUCAUAAUCGCGUGGAUAUGGCACGCAAGUUUCUACCGGGCACCGUAAAUGUCCGACUGGAGCCGUUCGGGCGGCUAUAAACAGACCUCAGGCCCGAAGCGUGGCGGCACCUGCCGCCGGUGGUAAAAAAGAUCGGAAGAGCACACGUCU [U7G G9C U11A C12U],1.65
5,GGGUCGGUCUAGCAUAAUCGCGUGGAUAUGGCACGCAAGUUUCUACCGGGCACCGUAAAUGUCCGACUGGAGCCGUUCGGGCGGCUAUAAACAGACCUCAGGCCCGAAGCGUGGCGGCACCUGCCGCCGGUGGUAAAAAAGAUCGGAAGAGCACACGUCU [U7G G9C U11A C12G],1.65
6,GGGUCGGUCUAACAUAAUCGCGUGGAUAUGGCACGCAAGUUUCUACCGGGCACCGUAAAUGUCCGACUGGAGCCGUUCGGGCGGCUAUAAACAGACCUCAGGCCCGAAGCGUGGCGGCACCUGCCGCCGGUGGUAAAAAAGAUCGGAAGAGCACACGUCU [U7G G9C U11A C12A],1.94
7,GGGUCGGUCUACUAUAAUCGCGUGGAUAUGGCACGCAAGUUUCUACCGGGCACCGUAAAUGUCCGACUGGAGCCGUUCGGGCGGCUAUAAACAGACCUCAGGCCCGAAGCGUGGCGGCACCUGCCGCCGGUGGUAAAAAAGAUCGGAAGAGCACACGUCU [U7G G9C U11A C13U],1.62
8,GGGUCGGUCUACGAUAAUCGCGUGGAUAUGGCACGCAAGUUUCUACCGGGCACCGUAAAUGUCCGACUGGAGCCGUUCGGGCGGCUAUAAACAGACCUCAGGCCCGAAGCGUGGCGGCACCUGCCGCCGGUGGUAAAAAAGAUCGGAAGAGCACACGUCU [U7G G9C U11A C13G],1.19
9,GGGUCGGUCUACAAUAAUCGCGUGGAUAUGGCACGCAAGUUUCUACCGGGCACCGUAAAUGUCCGACUGGAGCCGUUCGGGCGGCUAUAAACAGACCUCAGGCCCGAAGCGUGGCGGCACCUGCCGCCGGUGGUAAAAAAGAUCGGAAGAGCACACGUCU [U7G G9C U11A C13A],1.41
10,GGGUCGGUCUAUAAUAAUCGCGUGGAUAUGGCACGCAAGUUUCUACCGGGCACCGUAAAUGUCCGACUGGAGCCGUUCGGGCGGCUAUAAACAGACCUCAGGCCCGAAGCGUGGCGGCACCUGCCGCCGGUGGUAAAAAAGAUCGGAAGAGCACACGUCU [U7G G9C U11A C12U C13A],1.42
11,GGGUCGGUCUAUGAUAAUCGCGUGGAUAUGGCACGCAAGUUUCUACCGGGCACCGUAAAUGUCCGACUGGAGCCGUUCGGGCGGCUAUAAACAGACCUCAGGCCCGAAGCGUGGCGGCACCUGCCGCCGGUGGUAAAAAAGAUCGGAAGAGCACACGUCU [U7G G9C U11A C12U C13G],1.33
12,GGGUCGGUCUAUUAUAAUCGCGUGGAUAUGGCACGCAAGUUUCUACCGGGCACCGUAAAUGUCCGACUGGAGCCGUUCGGGCGGCUAUAAACAGACCUCAGGCCCGAAGCGUGGCGGCACCUGCCGCCGGUGGUAAAAAAGAUCGGAAGAGCACACGUCU [U7G G9C U11A C12U C13U],1.32
13,GGGUCGGUCUCAGAUAAUCGCGUGGAUAUGGCACGCAAGUUUCUACCGGGCACCGUAAAUGUCCGACUGGAGCCGUUCGGGCGGCUAUAAACAGACCUCAGGCCCGAAGCGUGGCGGCACCUGCCGCCGGUGGUAAAAAAGAUCGGAAGAGCACACGUCU [U7G G9C U11C C12A C13G],1.28
14,GGGUCGGUCUCAAAUAAUCGCGUGGAUAUGGCACGCAAGUUUCUACCGGGCACCGUAAAUGUCCGACUGGAGCCGUUCGGGCGGCUAUAAACAGACCUCAGGCCCGAAGCGUGGCGGCACCUGCCGCCGGUGGUAAAAAAGAUCGGAAGAGCACACGUCU [U7G G9C U11C C12A C13A],1.42
15,GGGUCGGUCUCAUAUAAUCGCGUGGAUAUGGCACGCAAGUUUCUACCGGGCACCGUAAAUGUCCGACUGGAGCCGUUCGGGCGGCUAUAAACAGACCUCAGGCCCGAAGCGUGGCGGCACCUGCCGCCGGUGGUAAAAAAGAUCGGAAGAGCACACGUCU [U7G G9C U11C C12A C13U],1.5
16,GGGUCGGUCUAGUAUAAUCGCGUGGAUAUGGCACGCAAGUUUCUACCGGGCACCGUAAAUGUCCGACUGGAGCCGUUCGGGCGGCUAUAAACAGACCUCAGGCCCGAAGCGUGGCGGCACCUGCCGCCGGUGGUAAAAAAGAUCGGAAGAGCACACGUCU [U7G G9C U11A C12G C13U],1.36
17,GGGUCGGUCUAGGAUAAUCGCGUGGAUAUGGCACGCAAGUUUCUACCGGGCACCGUAAAUGUCCGACUGGAGCCGUUCGGGCGGCUAUAAACAGACCUCAGGCCCGAAGCGUGGCGGCACCUGCCGCCGGUGGUAAAAAAGAUCGGAAGAGCACACGUCU [U7G G9C U11A C12G C13G],1.23
18,GGGUCGGUCUAGAAUAAUCGCGUGGAUAUGGCACGCAAGUUUCUACCGGGCACCGUAAAUGUCCGACUGGAGCCGUUCGGGCGGCUAUAAACAGACCUCAGGCCCGAAGCGUGGCGGCACCUGCCGCCGGUGGUAAAAAAGAUCGGAAGAGCACACGUCU [U7G G9C U11A C12G C13A],1.2
